Reference: PMC6420622, “Mutations in the PKM2 exon-10 region are associated with reduced allostery and increased nuclear translocation” (Communications Biology, 2019)

Target: the molecule itself
Assay: crystal structure; PKM2 variant with Ser and FBP; hanging drop, 0.1 M Tris pH 7.5, 0.2 M NaCl, 14% PEG 3350, 4 °C; molecular replacement with PDB 4B2D

B1: His-tagged PKM2 R399E (enzyme)
chain: not shown
notes: Pyruvate kinase isoform M2 (PKM2), engineered mutant R399E; full-length cDNA in pET28a, site-directed mutagenesis; Crystallised with Ser and FBP (PDB 5X0I); also called His-PKM2 R399E; source: E. coli BL21 (DE3), purified (cobalt-chelated TALON resin)
B1: binds.
